The target of assay [1] is CS1-specific CAR (anti-CS1-scFv-CD28-CD3ζ; Pinco-CS1-CAR construct), expressed on transduced primary human T cells. Kind of assay: flow cytometry, CS1-CAR-transduced T cells of patients with relapsed myeloma, double staining with anti-CD3. (In general: In flow cytometry, cells or beads pass a laser one at a time.)
Assay [2] shares this target. The assay can be described thus: flow cytometry, CS1-CAR-transduced healthy donor T cells.

CS1-specific CAR (anti-CS1-scFv-CD28-CD3ζ; Pinco-CS1-CAR construct), expressed on transduced primary human T cells, sequence (chain, as listed by the source): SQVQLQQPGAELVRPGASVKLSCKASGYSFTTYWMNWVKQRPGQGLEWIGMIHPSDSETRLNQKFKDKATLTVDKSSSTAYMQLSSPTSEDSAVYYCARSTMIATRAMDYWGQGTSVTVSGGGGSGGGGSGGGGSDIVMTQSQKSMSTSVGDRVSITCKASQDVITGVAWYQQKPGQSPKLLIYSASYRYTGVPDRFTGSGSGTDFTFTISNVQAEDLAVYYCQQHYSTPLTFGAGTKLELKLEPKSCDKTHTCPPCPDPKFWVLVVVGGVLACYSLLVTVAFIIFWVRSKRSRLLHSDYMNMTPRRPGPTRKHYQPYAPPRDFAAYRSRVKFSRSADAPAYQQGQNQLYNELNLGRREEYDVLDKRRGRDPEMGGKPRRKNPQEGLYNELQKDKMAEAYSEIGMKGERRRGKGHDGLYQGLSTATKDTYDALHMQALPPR

For “biotin-labeled goat anti-mouse (Fab)2 polyclonal antibody (Jackson ImmunoResearch)”, the percent of cells stained was determined as 60.7% in assay [1] and 70.3% in assay [2].
